Experimental data: patent publication US12583895B2, “Polypeptides for restoring endothelial function and methods of use thereof” (Vanderbilt University, priority 2019, dated 2026)
Entries after “also recorded” stand apart in the source; their conditions may differ. Non-standard residues stand in square brackets, D forms with d. No end group written: not given here. pS = N[C@@H](COP(=O)(O)O)C(=O)O

Key:
rat aorta = experiment: Endothelial-dependent relaxation of rat aorta after acidosis (normal saline) injury; assay type: cell-based; conditions: NiPp 500 μM 30 min pretreatment in PL, then NS with NiPp 500 μM 2 h
Description: Freshly isolated rat aorta (RA) was cut into rings and then pretreated in the absence or presence of NiPp (500 μM) in PL for 30 min. Tissue rings were then transferred to normal saline (NS) to induce injury in the absence or presence of NiPp (500 μM) and continued incubation for 2 h at room temperature. After treatments, RA were suspended in the muscle bath, contracted with PE and then treated with escalating doses of carbachol (CCH; 10^−8 to 10^−5 M). The percent relaxation was determined as a change to the maximal PE-induced contraction. n=5-7 rats. *p<0.05 in two-way ANOVA with Tukey post-test. NiPp restores NS-induced endothelial dysfunction in RA.
Tissue rings were then transferred to NS and continued incubation in the absence or presence of NiPp (500 μM) for 2 h at room temperature. Control rings (Ctrl) were incubated in PL for 2.5 h. […] The percent relaxation was determined as a change to the maximal PE-induced contraction. […] Data are expressed as mean±SD. […]
This produced the maximal force tension relationship as previously described. […] Contractile responses were defined by stress, calculated using force generated by tissues as follows: stress (×10^5 N/m^2)=force (g)×0.0987/area, where area=wet weight (mg)/at maximal length (mm)]/1.055.
Relaxation was calculated as percent change in stress compared to the maximal PE-induced contraction (set as 100%). […]

p38 MAPK phosphorylation = p38 MAPK phosphorylation (Western blot) in rat aorta after subfailure stretch injury; assay type: cell-based; conditions: NiPp 500 μM, 1 h, immunoblot
Description: Freshly isolated rat aorta (RA) was subjected to subfailure stretch and incubated in PL in the absence (S) or presence of NiPp (500 μM) for 1 h at room temperature. […] The percent relaxation was determined as a change to the maximal PE-induced contraction. n=5 rats; #p<0.05, two-way ANOVA. […] Quantification of relative phosphorylation to total p38MAPK level is shown. N=10. *p<0.05, in one-way ANOVA with Tukey post-test. NiPp restores endothelial dysfunction and reduced p38 MAPK phosphorylation induced by stretch injury in RA.
Vascular injury and treatment of RA. Abdominal RA was subjected to subfailure stretch to the haptic endpoint (˜200% the resting length) for 10 s and repeated twice as previously described and a segment was reserved as non-stretched control. The tissues were then cut into 1-2 mm rings and incubated for 1 h at room temperature in PL with or without NiPp (500 μM). To induce acidotic injury, thoracic RA were cut into 1-2 mm rings and pretreated in the absence or presence of NiPp (500 μM) in PL for 30 min. […]
Western blot Analysis. […] The protein-antibody complexes were visualized and quantified using the Odyssey Infrared Imaging System. Phosphorylation was calculated as a ratio of the phosphorylated protein to total protein and was then normalized to the untreated tissues (Ctrl) with the control value set as 1.0.

PIK3R3 kinase = PIK3R3 kinase (Homo sapiens, UniProt Q92569); experiment: SelectScreen kinase profiling; assay type: biochemical; conditions: NiPp 100 μM; kinases inhibited at >40% are listed
PIK3R3 kinase, sequence (P42336 whole entry partner): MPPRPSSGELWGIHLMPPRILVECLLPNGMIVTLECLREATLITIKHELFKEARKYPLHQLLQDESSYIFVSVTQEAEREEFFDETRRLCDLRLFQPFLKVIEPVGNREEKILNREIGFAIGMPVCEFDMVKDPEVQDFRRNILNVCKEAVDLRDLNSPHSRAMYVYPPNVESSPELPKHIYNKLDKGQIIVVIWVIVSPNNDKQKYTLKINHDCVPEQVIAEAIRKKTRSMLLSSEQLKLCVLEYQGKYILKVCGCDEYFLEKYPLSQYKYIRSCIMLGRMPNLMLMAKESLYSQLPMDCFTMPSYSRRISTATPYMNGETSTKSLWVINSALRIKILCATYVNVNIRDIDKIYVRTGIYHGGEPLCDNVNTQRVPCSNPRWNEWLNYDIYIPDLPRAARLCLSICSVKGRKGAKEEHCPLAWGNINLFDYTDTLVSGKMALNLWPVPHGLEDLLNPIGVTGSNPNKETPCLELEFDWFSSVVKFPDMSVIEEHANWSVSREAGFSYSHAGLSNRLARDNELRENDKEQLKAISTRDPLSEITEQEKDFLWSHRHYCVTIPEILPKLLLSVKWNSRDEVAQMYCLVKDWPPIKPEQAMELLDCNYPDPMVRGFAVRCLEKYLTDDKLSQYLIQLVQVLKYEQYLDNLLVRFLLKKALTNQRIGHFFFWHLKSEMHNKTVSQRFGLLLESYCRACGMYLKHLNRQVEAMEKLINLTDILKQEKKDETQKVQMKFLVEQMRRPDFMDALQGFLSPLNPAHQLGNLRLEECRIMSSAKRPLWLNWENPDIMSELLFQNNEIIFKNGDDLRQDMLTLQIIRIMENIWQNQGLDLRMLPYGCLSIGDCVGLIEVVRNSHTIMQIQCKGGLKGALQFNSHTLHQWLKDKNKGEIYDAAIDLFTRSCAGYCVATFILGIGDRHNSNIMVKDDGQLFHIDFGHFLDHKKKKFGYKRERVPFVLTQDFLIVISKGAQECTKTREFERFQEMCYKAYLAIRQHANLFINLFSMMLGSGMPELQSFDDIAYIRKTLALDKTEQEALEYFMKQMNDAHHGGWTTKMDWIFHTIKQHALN
Description: (§1) Kinase profiling. NiPp was dissolved in DMSO, screened at a single concentration of 100 μM using in vitro kinase assays (SelectScreen Kinase Profiling Service; ThermoFisher Scientific, Madison WI) including the Z'LYTE and Adapta kinase activity assays and the LanthaScreen Eu Kinase Binding Assay). Candidate interactions were predicted using STRING Version 11 (www.string-db-org) with the human database at confidence=0.7.
(§2) As injury leads to increased p38 MAPK phosphorylation and decreased Niban phosphorylation, one of the mechanisms by which NiPp restores function after endothelial injury can be kinase inhibition. A kinase profiling was performed using three different profiling platforms that measure activity and kinase/substrate binding. Kinases of which activity or substrate binding were inhibited by NiPp (100 μM) at >40% are listed and shown in a kinase dendrogram (FIGS. 14A, 14B, 19A and 19B).
(§3) The top two candidate kinase targets of NiPp were mitogen- and stress-activated kinase 1 (MSK1; also known as RPS6KA5) and p38 MAPKα (MAPK14), which were inhibited by 66% and 61%, respectively. MSK1 is an AGC kinase of the RSK family that is phosphorylated by ERK and p38 MAPK in response to cellular stress. Other kinases inhibited by the NiPp include CKD18 of the CMGC kinase family), FGFR1 of the TK family, and the PIK3R3 kinase (FIGS. 19A and 19B).

FGFR1 = FGFR1 (Homo sapiens, UniProt P11362); experiment: SelectScreen kinase profiling; assay type: biochemical; conditions: NiPp 100 μM; kinases inhibited at >40% are listed
FGFR1, sequence (P11362 22-822): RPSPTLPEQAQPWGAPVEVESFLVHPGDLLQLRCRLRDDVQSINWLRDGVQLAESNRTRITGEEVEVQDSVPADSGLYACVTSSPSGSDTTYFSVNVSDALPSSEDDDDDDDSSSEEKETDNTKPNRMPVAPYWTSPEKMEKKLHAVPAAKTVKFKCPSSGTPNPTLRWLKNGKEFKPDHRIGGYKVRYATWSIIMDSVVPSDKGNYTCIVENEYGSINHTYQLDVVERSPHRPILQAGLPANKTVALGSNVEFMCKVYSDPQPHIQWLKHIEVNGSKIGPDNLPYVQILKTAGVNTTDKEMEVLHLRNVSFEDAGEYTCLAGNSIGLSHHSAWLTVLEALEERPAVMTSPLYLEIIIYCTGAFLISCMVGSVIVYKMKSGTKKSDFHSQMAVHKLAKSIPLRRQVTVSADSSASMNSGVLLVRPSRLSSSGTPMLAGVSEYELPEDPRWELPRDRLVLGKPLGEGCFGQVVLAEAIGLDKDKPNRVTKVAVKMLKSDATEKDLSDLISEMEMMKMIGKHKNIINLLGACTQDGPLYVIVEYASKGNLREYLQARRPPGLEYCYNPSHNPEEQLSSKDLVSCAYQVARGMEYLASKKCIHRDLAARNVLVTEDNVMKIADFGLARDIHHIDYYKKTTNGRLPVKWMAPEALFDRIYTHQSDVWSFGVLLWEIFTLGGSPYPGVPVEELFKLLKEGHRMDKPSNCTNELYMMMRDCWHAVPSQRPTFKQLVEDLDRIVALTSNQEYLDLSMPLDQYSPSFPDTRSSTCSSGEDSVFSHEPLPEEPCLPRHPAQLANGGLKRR
Description: as §1, §2, §3

CKD18 = CKD18 (Homo sapiens, UniProt Q07002); experiment: SelectScreen kinase profiling; assay type: biochemical; conditions: NiPp 100 μM; kinases inhibited at >40% are listed
CKD18, sequence (Q07002 whole entry): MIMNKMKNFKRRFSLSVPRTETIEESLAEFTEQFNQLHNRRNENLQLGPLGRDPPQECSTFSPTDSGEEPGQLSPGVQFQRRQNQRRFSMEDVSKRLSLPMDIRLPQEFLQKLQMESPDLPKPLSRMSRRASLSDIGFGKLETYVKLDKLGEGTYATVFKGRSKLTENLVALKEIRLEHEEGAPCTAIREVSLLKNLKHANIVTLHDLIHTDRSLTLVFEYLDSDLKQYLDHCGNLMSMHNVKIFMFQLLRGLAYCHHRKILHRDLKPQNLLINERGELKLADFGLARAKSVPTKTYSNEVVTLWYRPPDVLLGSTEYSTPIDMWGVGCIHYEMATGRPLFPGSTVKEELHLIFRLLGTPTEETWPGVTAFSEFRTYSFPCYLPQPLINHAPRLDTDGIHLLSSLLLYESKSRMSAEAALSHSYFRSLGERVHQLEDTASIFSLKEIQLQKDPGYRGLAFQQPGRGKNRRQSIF
CKD18, sequence (Q8ND76 whole entry partner): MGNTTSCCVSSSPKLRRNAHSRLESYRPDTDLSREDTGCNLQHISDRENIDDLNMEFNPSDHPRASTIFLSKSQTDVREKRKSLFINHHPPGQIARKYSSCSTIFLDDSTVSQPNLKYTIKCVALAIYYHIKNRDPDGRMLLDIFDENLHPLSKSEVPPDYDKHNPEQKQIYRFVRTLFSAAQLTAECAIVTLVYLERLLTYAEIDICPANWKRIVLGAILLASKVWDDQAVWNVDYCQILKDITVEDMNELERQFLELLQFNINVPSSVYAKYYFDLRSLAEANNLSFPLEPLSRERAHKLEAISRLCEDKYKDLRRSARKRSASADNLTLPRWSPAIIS
Description: as §1, §2, §3

## YARAAARQARASPAARRA(pS)AILPG (YARAAARQARASPAARRA[pS]AILPG) [NiPp, Cell-permeant phosphopeptide mimetic of Niban: transduction domain … conjugated to the region surrounding serine 602 of Niban]
Rat aorta
  endothelial function (percent relaxation to carbachol) after acidosis (normal saline) injury: improved; also recorded: restores
p38 MAPK phosphorylation
  p38 MAPK phosphorylation relative to total p38 MAPK after stretch injury: reduced
PIK3R3 kinase
  inhibition of PIK3R3 kinase: inhibited
FGFR1
  inhibition of FGFR1: inhibited
CKD18
  inhibition of CKD18: inhibited
